Assay results from patent US20210324359A1, “USE OF GRAM-NEGATIVE LYSIN-ANTIMICROBIAL PEPTIDE (AMP) POLYPEPTIDE CONSTRUCTS IN TREATING ENDOCARDITIS” (priority 2020, published 2021).

What was measured:
[1] = tested on: biofilms formed by P. aeruginosa strain ATCC 17646; conditions: strain ATCC 17646 biofilm
Procedure: Biofilms are then washed and treated with e.g., a 2-fold dilution series of the lysin in TSBg at e.g., 37° C. for 24 hours. After treatment, wells are washed, air-dried at e.g., 37° C. and stained with e.g., 0.05% crystal violet for 10 minutes.

[2] = tested on: P. aeruginosa; assay: MIC, modified CLSI broth microdilution in CAA medium without or with […] human serum (Table 4); assay type: cell-based, Pseudomonas aeruginosa; conditions: for CAA MIC: CAA medium, no human serum; for CAA/HuS MIC: CAA supplemented with […] human serum; for effect of the structural modification on activity (as assessed by MIC) versus the parent lysin: CAA with and without human serum, parent GN316 or GN37; for CAA/HuS MIC: CAA supplemented with 2.5% human serum
Source text: 2015. […] Clinical and Laboratory Standards Institute, Wayne, Pa.

[3] = tested on: carbepenam-resistant clinical isolate WC-453; assay: MIC in CAA without or with 25% human serum (Table 5); assay type: cell-based, Pseudomonas aeruginosa; parameters: CAA MIC: unit not given here; conditions: for CAA/HuS MIC: CAA supplemented with 25% human serum
Procedure: MIC values were determined using a modification of the standard broth microdilution reference method defined by the Clinical and Laboratory Standards Institute (CLSI), CLSI. […] Methods for Dilution Antimicrobial Susceptibility Tests for Bacteria That Grow Aerobically; Approved Standard-10th Edition. Clinical and Laboratory Standards Institute, Wayne, Pa.

[4] = tested on: P. aeruginosa strain WC-453; assay: Time-kill assay in HEPES or CAA with 25% human serum (Tables 7, 8); assay type: cell-based, Pseudomonas aeruginosa; conditions: for HEPES (Log10 CFU/mL), 1 hr / HEPES (Log10 CFU/mL), 3 hr: 25 mM HEPES pH 7.4; for HEPES (Log10 CFU/mL), 1 hr / HEPES (Log10 CFU/mL), 3 hr / CAA/HuS (Log10 CFU/mL), 1 hr / CAA/HuS (Log10 CFU/mL), 3 hr: lysin 10 μg/ml, WC-453; for CAA/HuS (Log10 CFU/mL), 1 hr / CAA/HuS (Log10 CFU/mL), 3 hr: CAA + 25% human serum
Procedure: Exponential phase bacteria were then pelleted and resuspended in 1/5 culture volume of 25 mM HEPES, pH 7.4 before a final adjustment to an optical density corresponding to a McFarland value of 0.5. […] All treatments were incubated at 37° C. with aeration. At time points before the addition of lysin (or buffer control) and at 1 hour and 3 hours intervals thereafter, culture samples were removed for quantitative plating on CAA agar plates.

Row | Molecule | MBEC [1] [µg/mL] | CAA MIC [2] [µg/mL] | CAA/HuS MIC [2] [µg/mL] | effect of the structural modification on activity (as assessed by MIC) versus the parent lysin [2] | activity in CAA supplemented with human serum (25%) [3] | CAA MIC [3] | CAA/HuS MIC [3] | bactericidal activity (CFU decrease of 3-Log10, 3 hours after the addition of lysin) ([4]; 10 μg/mL, enumerated lysins in CAA/HuS, general statement for HEPES and CAA/HuS) | HEPES (Log10 CFU/mL), 1 hr [4] [Log10 CFU/mL] | HEPES (Log10 CFU/mL), 3 hr [4] [Log10 CFU/mL] | CAA/HuS (Log10 CFU/mL), 1 hr [4] [Log10 CFU/mL] | CAA/HuS (Log10 CFU/mL), 3 hr [4] [Log10 CFU/mL]
1 | GN217: GN37 lysin with amino acid substitution R79H (SEQ ID NO: 8) (protein) MTYTLSKRSLDNLKGVHPDLVAVVHRAIQLTPVDFAVIEGLRSVSRQKELVAAGASKTMNSRHLTGHAVDLAAYVNGIHWDWPLYDAIAVAVKAAAKELGVAIVWGGDWTTFKDGPHFELDRSKYR | 0.5 | 4000 | 125 | improves its potency over GN37 both in the absence and presence of human serum |  |  |  |  |  |  |  | 
2 | GN218: lysin-AMP construct: IGEM linker and RI12 antimicrobial peptide C-terminal to GN37 lysin (SEQ ID NO: 10) (protein) MTYTLSKRSLDNLKGVHPDLVAVVHRAIQLTPVDFAVIEGLRSVSRQKELVAAGASKTMNSRHLTGHAVDLAAYVNGIRWDWPLYDAIAVAVKAAAKELGVAIVWGGDWTTFKDGPHFELDRSKYGGGSGGGGSGGGSRLKKIGKVLKWI |  | 8000 | 1000 | very strong activity in the presence of human serum | active | 8 | 1 |  |  |  |  | 
3 | GN83: AMP OBPgpLYS fused to the N-terminus of lysin GN4 (SEQ ID NO: 216) (protein, OBG_GN4_2 (Lyz+C-term)) MKNSEKNASIIMSIQRTLASLSLYGGRIDGLFGEKCRGAIILMLNKVYPNFSTNKLPSNTYEAESVFTFLQTALAGVGLYTITIDGKWGGTSQGAIDALVKSYRQITEAERAGSTLPLGLATVMSTSQRGIDLIKSFEGLRLSAYQDSVGVWTIGYGTTRGVTRYMTITVEQAERMLSNDIQRFEPELDRLAKVPLNQNQWDALMSFVYNLGAANLASSTLLKLLNKGDYQGAADQFPRWVNAGGKRLDGLVKRRAAERALFLEPLS | 1 |  |  |  | repressed | >128 | >128 | bactericidal activity | <3.7 | <3.7 | 5.7 | <3.7
4 | GN178: lysin-AMP construct: Esculentin fragment and IGEM linker N-terminal to GN146 lysin (SEQ ID NO: 6) (protein) MPPIFSKLAGKKIKNLLISGLKGGSGSGSGSGSPRTSQRGIDLIKSFEGLRLSAYQDSVGVWTIGYGTTRGVTRYMTITVEQAERMLSNDIQRFEPELDRLAKVPLNQNQWDALMSFVYNLGAANLASSTLLDLLNKGDYQGAADQFPHWVNAGGKRLDGLVKRRAAERALFLEPLS |  | 8000 | 4000 |  | active | 8 | 1 |  |  |  |  | 
5 | GN80: dispersin B-like molecule (SEQ ID NO: 214) (protein, listed as Staphylococcus sciuri) MENIQKGITVDIARKSYSLETLKTIVKHIHDHNGQYLQLHFSDDENYAIESEYFDRKSFSNPYYLTKTEVKSLIEYSNDLNVMVIPDMDFPSHSKAFLSLIKQNDKSLYQEIISDYSDNTLDFFSNRKAVDVTNRQIDEITELFKQPQFAEQQRIVLGGDEVAGGGAHQNSFIEYMNQIGDYAFQQGYEPQMWNDMVTHEGVKSLNNHYSILYWKQNEDNKSNLTVEDFDKYYFDVYNYNYYSLYFLPSKQFSQDDINEQAEYIGWAYAYNKFYYNKNPYSEVNSQNVKGSALSFWGEHATDMTQEELINQEVPLIKVYFNLKK | 0.125 |  |  |  |  |  |  |  | 7.7 | 6.7 | 6.7 | 7.0
